Experimental data reported in publication PMC10777347, “De Novo Single-Stranded RNA-Binding Peptides Discovered by Codon-Restricted mRNA Display” (Biomacromolecules, 2023).

Key:
[1] = tested on: AP2 (synthetic (de novo)); assay: spectral shift; details: Spectral shift: 10 mM Tris-HCl pH 8.0, 0.05% Tween 20, no added salt, 25 C, Cy5 oligo (20 nM stock), 30 min at RT; MST with oncogenic RNAs in human plasma-like …
[2] = tested on: CP1 (synthetic (de novo)); assay: MST; details: Spectral shift: 10 mM Tris-HCl pH 8.0, 0.05% Tween 20, no added salt, 25 C, Cy5 oligo (20 nM stock), 30 min at RT; MST with oncogenic RNAs in human plasma-like …
hnRNPK = hnRNPK (UniProt P61978); assay: fluorescence anisotropy; details: Spectral shift: 10 mM Tris-HCl pH 8.0, 0.05% Tween 20, no added salt, 25 C, Cy5 oligo (20 nM stock), 30 min at RT; MST with oncogenic RNAs in human plasma-like …; cited from earlier work
[3] = tested on: CP1 (synthetic (de novo)); assay: spectral shift; details: Spectral shift: 10 mM Tris-HCl pH 8.0, 0.05% Tween 20, no added salt, 25 C, Cy5 oligo (20 nM stock), 30 min at RT; MST with oncogenic RNAs in human plasma-like …
MYU lncRNA = details: fluorescence anisotropy binding assay, previous study; read-out: KD^hnRNPK, MYU lncRNA; cited from earlier work
Experimental: Figure 7 Assessment of the affinity of poly(C) RNA-binding peptides to cytosine-rich oncogenic RNA motifs. […] The KD^CP1s were measured using microscale thermophoresis in a human plasma-like medium. Cytosines predicted to be single-stranded within RNA ligands are highlighted in red. Cytosine-to-adenine substitution is highlighted in blue. The predicted secondary structures are available in Figure S11. The complete thermodynamic plots are shown in Figure S12. *The KD^hnRNPKs are the dissociation ...

Cdk6 3′UTR RNA = details: fluorescence anisotropy binding assay, previous study; read-out: KD^hnRNPK, Cdk6 3′UTR RNA; cited from earlier work
Experimental: To evaluate the synthetic ssRNA-binding peptide’s affinity for biologically derived RNA targets, we have chosen two cytosine-rich RNA motifs from the oncogenic Cdk6 3′UTR RNA and MYU lncRNA. These motifs have previously been identified as targets of hnRNPK,[45] and they both consist of extended cytosine repeats (>4 nt) within a necessary single-stranded region for the progression of colon cancer cells. […] The KD^CP1s were measured using microscale thermophoresis in a human plasma-like medium. Cytosines predicted to be single-stranded within RNA ligands are highlighted in red. Cytosine-to-adenine substitution is highlighted in blue. The predicted secondary structures are available in Figure S11. The complete thermodynamic plots are shown in Figure S12. *The KD^hnRNPKs are the dissociation ...

[4] = tested on: AP2-short (synthetic (de novo)); assay: spectral shift; details: Spectral shift: 10 mM Tris-HCl pH 8.0, 0.05% Tween 20, no added salt, 25 C, Cy5 oligo (20 nM stock), 30 min at RT; MST with oncogenic RNAs in human plasma-like …
[5] = tested on: AP2-short Q to S (synthetic (de novo)); assay: spectral shift; details: Spectral shift: 10 mM Tris-HCl pH 8.0, 0.05% Tween 20, no added salt, 25 C, Cy5 oligo (20 nM stock), 30 min at RT; MST with oncogenic RNAs in human plasma-like …
[6] = tested on: CP2 (synthetic (de novo)); assay: spectral shift; details: Spectral shift: 10 mM Tris-HCl pH 8.0, 0.05% Tween 20, no added salt, 25 C, Cy5 oligo (20 nM stock), 30 min at RT; MST with oncogenic RNAs in human plasma-like …
[7] = tested on: AP2 QNQ to TNH (synthetic (de novo)); assay: spectral shift; details: Spectral shift: 10 mM Tris-HCl pH 8.0, 0.05% Tween 20, no added salt, 25 C, Cy5 oligo (20 nM stock), 30 min at RT; MST with oncogenic RNAs in human plasma-like …

AAAAAAAAAAAA [poly(A) DNA] gave a binding signal (fold weaker than poly(A) RNA) [1] of 2.

In the case of “GGUCCCCCGCCUCAUUCGCCCCUCUGCUCCC [Cdk6 3'UTR RNA motif]”, the Kd [2] is given as 103 nM and the Kd (hnRNPK) is given as 450 nM.

In the case of “GGCUCCCCCGACCUCUGUGCUCCCCUCCCCCGACCUCUGUGC [MYU lncRNA motif]”, the Kd [2] is reported as 107 nM.

In the case of CCCCCCCCCCCC [poly(C) DNA], the binding signal (fold weaker than poly(C) RNA) [3] is reported as 7.

poly(C) RNA / antisense DNA hybrid showed a binding signal (fold weaker than poly(C) RNA) [3] of 6.

In the case of “hnRNPK: endogenous RNA-binding protein with KH domain, binds cytosine-rich RNA motifs”, the Kd (MYU lncRNA) is given as 70 ± 7 nM and the Kd (Cdk6 3′UTR RNA) is given as 450 nM.

With AAAAAAAAAAAA [poly(A) RNA] the Kd [1] was 18800 nM, the Kd [4] was 82000 nM and the binding signal (fold weaker than poly(C) RNA) [3] was 4. The Kd [5] was 115000 nM.

For CCCCCCCCCCCC [poly(C) RNA], the Kd [3] was 900 nM, the Kd [6] was 1200 nM and the Kd [7] was 120000 nM.
